Test results: publication PMC5082683

Target: Andes virus Gc, wild type (Andes virus strain CHI-7913)
Test: sucrose gradient sedimentation

## Andes virus Gc, wild type (natural protein)
  stoichiometry N: 3
